# Reference: the DeepSol protein solubility set
# Experiment: soluble on expression in E. coli; label from the status in PepcDB or PDB records
row,Sequence,soluble on expression in E. coli
1,RQGCEARRAHEHLIRLLLEQGKCPEDGWDESTLELFLHELAVMDSNNFLGNCGVGEREGRVASALVARRHYRFIHGIGRSGDISAVQPKAAGSSLLNKITNSLVLNVIKLAGVHSVASCFVVPMATGMSLTLCFLTLRHKRPKAKYIIWPRIDQKSCFKSMVTAGFEPVVIENVLEGDELRTDLKAVEAKIQELGPEHILCLHSTTACFAPRVPDRLEELAVICANYDIPHVVNNAYGLQSSKCMHLIQQGARVGRIDAFVQSLDKNFMVPVGGAIIAGFNEPFIQDISKMYPGRASASPSLDVLITLLSLGCSGYRKLLKERKEMFVYLSTQLKKLAEAHNERLLQTPHNPISLAMTLKTIDGHHDKAVTQLGSMLFTRQVSGARAVPLGNVQTVSGHTFRGFMSHADNYPCAYLNAAAAIGMKMQDVDLFIKRLDKCLNIVRKEQTRA,soluble
2,RQIQKKIESGELKAAPEIVEADAECCGQHEICEKESLLAAVSKKIEYYDDEELDRFRGRPSNGYNEEEVEEFREIMYTCKEDEVAGWSRSLQLRGIELPDELKDELFLIVGERRFK,not soluble
3,RQTRIMDSAQYAEFCESRQLSFSKKASKFRDWLDCSSMEIKPNVVAMEILAYLAYETVAQLVDLALLVRQDMVTKAGDPFSHAISATFIQYHNSAESTAACGVEAHSDAIQPCHIREAIRRYSHRIGPLSPFTNAYRRNGMAFLAC,soluble
4,RRMVALYDYDPRESSPNVDVEAELTFCTGDIITVFGEIDEDGFYYGELNGQKGLVPSNFLEEV,soluble
5,RSFLPPFNEGSFTINVSTLPGISLEESDRMGRMAEEILLSVPEVQTVGRKTGRAELDEHALGVNVSEIEVPFVLKDRSKDEVLADIREKLKVLPGVNIEIGQPISHRIDAMLSGTRANIAIKLFGPDLNRLFAIGNQIKTSVHDVKGVADLNVEQQVERPQLKIVPKREMLAKYGLTPASFAEIVNVMLAGEVVSQVYEGNRSFDLSLKVNDESRESADRIRDLIIDAGGRKIPFAYVADIVSASGPNTINRENVSRKIVVSANVAGRDLRSVVNDIQERIDADITLPEGYHIEYGGQFESEQAASRT,not soluble
6,RSFYNLGMDYKYRFHRFSIQGEAALGISGMAFMNQVLYSPLQDIRLMLVHRYYSHDYWAMFAHSFSEGSSVQNENGWYLAASVNPFNRWTFFVSADLFSFPWWRYRISKASKGVDLLFQADYVPSKTVDMYVNYRYKQKERDVTGTQGKVILPTYHHRLRYRLNYLPCSSLSLRTTVDYNHFHSSGKTAGQGYQLTQTAGWKLPWLPLTTELQGSYFHTDDYDSRIYIYEKGLLYSFYTPSFQGEGIRLAIHFRYDMNKHWTAIAKLGQTTYFDRDEIGSGNDLIRGNKKTDVQMQLRLKF,not soluble
7,RTHIIGIDQTLVDIEAKVDDAFIEKYGLSKGHSLVIDNDKAEMLYNELKDNNMISNEFAGGTIGNTLHNYSVLADDKSTLLGVMSEDIHIGSYSYRYLCNTSSRMDLNYLQPVPGAIGRCFALISEDGERTFAISEGDMNQLRAESIPEKIFKNASALVLTAYLVRCKEGDPMPEATMKAIEYAKKYDVPVVLTMGTKFVVQDDPQYWRDFLNDHVTVVAMNEEEGEALTGATDPLEAANKTLEWVDLVLCTAGPVGLYMAGYTEDSAKRETSLPLLPGTIAEFNQFEFSRPAVKDSCENPIKVFSHISPYMGGPEKIKNTNGAGDGALSALLHDMAANHYHRNNVPNSSKHQHSFLTYSSFSQVCKYSNRVSFEVLAQHSPRLSRGLPEREDSLEEAYWE,soluble
8,SAAPPGEYFSVGSQVSCRTCQEQRLQGEVVAFDYQSKMLALKCPSSSGKPNHADILLINLQYVSEVEIINDRTETPRPLASLNVSKLASKARTEKEEKLSQAYAISAGVSLEGQQLFQTIHKTIKDCKWQEKNIVVMEEVVITPPYQVENCKGKEGSALSHVRKIVEKHFRDVESQKILQRSQAQQPQKEAALSS,soluble
9,SAATMKKAAAEDVNVTFEDQQKINKFARNTSRITELKEEIEVKKKQLQNLEDACDDIMLADDDCLMIPYQIGDVFISHSQEETQEMLEEAKKNLQEEIDALESRVESIQRVLADLKVQLYAKFGSNINLEADES,soluble
10,SAEKLFTPLKVGAVTAPNRVFMAPLTRLRSIEPGDIPTPLMGEYYRQRASAGLIISEATQISAQAKGYAGAPGLHSPEQIAAWKKITAGVHAEDGRIAVQLWHTGRISHSSIQPGGQAPVSASALNANTRTSLRDENGNAIRVDTTTPRALELDEIPGIVNDFRQAVANAREAGFDLVELHSAHGYLLHQFLSPSSNQRTDQYGGSVENRARLVLEVVDAVCNEWSADRIGIRVSPIGTFQNVDNGPNEEADALYLIEELAKRGIAYLHMSETDLAGGKPYSEAFRQKVRERFHGVIIGAGAYTAEKAEDLIGKGLIDAVAFGRDYIANPDLVARLQKKAELNPQRPESFYGGGAEGYTDYPSL,soluble
11,SAGVRGLRFVERFGDNTASLIKNAILLDQQKVEVFNIRFKSSRDFTIQIKLNAKGNYKKSEVEKYKSQIGVQDNELGDKEEGTLEADLIFTYTPPASNLFSKSNFDKLTKSINFNTNLKLEMVGKDEVMRKILNSSAFTNNLASVNYPNQAVNLLPYVLYSIL,not soluble
12,SAGVRGLRLVERYTQDTANIINNVIKLDKQKVEAFSIQYKDPKNFRVQVKINAKGNYKKDTVKTYLSQVGLSDGDLNDTGTLEAEIIYTYMPPAASFFSASKFDKLTRAINFNTNLRIQIIGKDSVMTKLLQQSSFVKQLADQKFQDQSINLLPYVLYSI,not soluble
13,SAKAVRIGAEGYKLKLDGAVQEIDGRSVVLVDVDSITPLMFGGSMKEKAKLLDAKFLRKYYEENKDFFFLSTREEKKMFVTLQLAREYAELVDDQFLRGFFEKALESAQKAF,soluble
14,SALSSAASLLGSPLTNDFAVISMSDLLTPLDTIMKRVEAFAKADIVTVIYNPRGSRFPDNIRKAVDIFLRYRNPETAVGIVRNAYRERQSVTITTLSNLNIEDIDMLTTVIIGNSETF,not soluble
15,SATTVTLEKCGHNKGYKGLDNCRFCPGSQCCVEDGPESIDSIIDMDAVCKRVTTLGLDVSVTISQDAGRYLCDFTYYTSLYQSHGRSAFVHVPPLGKPYNADQLGRALRAIIEEMLDLLEQSEGKINYCHKH,soluble
16,SDCLIVVDTRAAIRRVNRAALTMLGYDEEQLLGMPVGVIFAWERDKERLRTEGLRCFVESIGSSPAEFTFLSSDERRTPVLLSASPMLGRD,not soluble
17,SDHGSNEIDRHLTPGASPAYIGINKEKKLLYTANYHTAVLSVFQYSNSGKLALVAQTTHKAESLGPRPEQVDGPHPHFFDETPAGNLVSCDLGNDTVDFYRLENNELKHLAQYKNEAGFGDRHIVFSKDGNYFYVVGELSSQINVVKFNENTWEFEDIATYKTIPEDFTEHNGAAALYITNDGKYIYNSNRGHNSITVFKVNDDHTLSLIQRISTFGDFPRDFNWDETQKYVVAANQNT,soluble
18,SDLDLLDLNPRIIAAIKKAKLKSVKEVLHFSGPDLKRLTNLSSPEVWHLLRTASLHLRGSSILTALQLHQQKERFPTQHQRLSLGCPVLDALLRGGLPLDGITELAGRSSAGKTQLALQLCLAVQFPRQHGGLEAGAVYICTEDAFPHKRLQQLMAQQPRLRTDVPGELLQKLRFGSQIFIEHVADVDTLLECVNKKVPVLLSRGMARLVVIDSVAAPFRCEFDSQASAPRARHLQSLGATLRELSSAFQSPVLCINQVTEAMEEQGAAHGPLGFWDERVSPALGITWANQLLVRLLADRLREEEAALGCPARTLRVLSAPHLPPSSCSYTISAEGVRGTPGTQSH,soluble
19,SDLQAAGAQAQGAAEPSRGPPLPSARGAPPSPEAGFATADHSGQERETEKAMDRLARGTQSIPNDSPARGEGTHSEEEGFAMDEEDSDGELNTWELSEGTNCPPKEQPGDLFNEDWDSELKADQGNPYDADDIQESISQELKPWVCCAPQGDMIYDPSWHHPPPLIPYYSKMVFETGQFDDAED,soluble
20,SDRRTRENPERTFDLVLKVKCHASENEDPEVLWKFPEDFGDQEVLQSVPKFCFPFDVERVSQNQVGQHFTFVLTDMESKQRFGFCRLTSGGRICLCILSYLPWFEVYYKLLNTLADYLAKELEEDLNETLKSLYNHPVPKANTPVNLSVNQELFIASEQVLKDDPSLIPHSCFITPDITGLPTIPESRNLTEYFVAVDVNNMLRLYASMLHERRIIITSSKLSTVSPSHLRL,soluble
